According to the supplement of paper PMC11246515:
± gives the standard deviation of the averaged measurements.

Experiment: total protein half-life in vivo (active degradation + dilution); higher = more stable protein
[1] = E. coli NCM3722 delta-clpP delta-lon delta-hslV, growth: N-lim chemostat, doubling time 6 h
[2] = E. coli NCM3722 delta-clpP, growth: N-lim chemostat, doubling time 6 h
[3] = E. coli NCM3722 delta-hslV, growth: N-lim chemostat, doubling time 6 h
[4] = E. coli NCM3722 delta-lon, growth: N-lim chemostat, doubling time 6 h
[5] = E. coli NCM3722 delta-smpB, growth: N-lim chemostat, doubling time 6 h
[6] = wild type E. coli NCM3722, growth: C-lim chemostat, doubling time 3 h
[7] = wild type E. coli NCM3722, growth: C-lim chemostat, doubling time 6 h
[8] = wild type E. coli NCM3722, growth: C-lim chemostat, doubling time 12 h
[9] = wild type E. coli NCM3722, growth: N-lim chemostat, doubling time 6 h
[10] = wild type E. coli NCM3722, growth: N-lim chemostat, doubling time 12 h
[11] = wild type E. coli NCM3722, growth: P-lim chemostat, doubling time 6 h
[12] = wild type E. coli NCM3722, growth: P-lim chemostat, doubling time 12 h

Sequence	total protein half-life in vivo [1] [h]	total protein half-life in vivo [2] [h]	total protein half-life in vivo [3] [h]	total protein half-life in vivo [4] [h]	total protein half-life in vivo [5] [h]	total protein half-life in vivo [6] [h]	total protein half-life in vivo [7] [h]	total protein half-life in vivo [8] [h]	total protein half-life in vivo [9] [h]	total protein half-life in vivo [10] [h]	total protein half-life in vivo [11] [h]	total protein half-life in vivo [12] [h]
MSRPLLQLALDHSSLEAAQRDVTLLKDSVDIVEAGTILCLNEGLGAVKALREQCPDKIIVADWKVADAGETLAQQAFGAGANWMTIICAAPLATVEKGHAMAQRCGGEIQIELFGNWTLDDARDWHRIGVRQAIYHRGRDAQASGQQWGEADLARMKALSDIGLELSITGGITPADLPLFKDIRVKAFIAGRALAGAANPAQVAGDFHAQIDAIWGGARA	4.65	4	4.08 ± 0.35	4.77	4.3 ± 0.38	3.07 ± 0.25	5.17 ± 0.32	9.07 ± 0.79	3.93	6.66 ± 0.91	5.76	9.91 ± 0.32
MDSQRNLLVIALLFVSFMIWQAWEQDKNPQPQAQQTTQTTTTAAGSAADQGVPASGQGKLISVKTDVLDLTINTRGGDVEQALLPAYPKELNSTQPFQLLETSPQFIYQAQSGLTGRDGPDNPANGPRPLYNVEKDAYVLAEGQNELQVPMTYTDAAGNTFTKTFVLKRGDYAVNVNYNVQNAGEKPLEISSFGQLKQSITLPPHLDTGSSNFALHTFRGAAYSTPDEKYEKYKFDTIADNENLNISSKGGWVAMLQQYFATAWIPHNDGTNNFYTANLGNGIAAIGYKSQPVLVQPGQTGAMNSTLWVGPEIQDKMAAVAPHLDLTVDYGWLWFISQPLFKLLKWIHSFVGNWGFSIIIITFIVRGIMYPLTKAQYTSMAKMRMLQPKIQAMRERLGDDKQRISQEMMALYKAEKVNPLGGCFPLLIQMPIFLALYYMLMGSVELRQAPFALWIHDLSAQDPYYILPILMGVTMFFIQKMSPTTVTDPMQQKIMTFMPVIFTVFFLWFPSGLVLYYIVSNLVTIIQQQLIYRGLEKRGLHSREKKKS	6.9 ± 1.3	6.01 ± 0.51	6.03 ± 0.043	6.29 ± 0.36	6.08 ± 0.42	3.2 ± 0.74	6.37 ± 1.8		6.08 ± 0.64	12.2 ± 0.55	6.66 ± 0.93	12.6 ± 0.7
MAHPPRLNDDKPVIWTVSVTRLFELFRDISLEFDHLANITPIQLGFEKAVTYIRKKLANERCDAIIAAGSNGAYLKSRLSVPVILIKPSGYDVLQALAKAGKLTSSIGVVTYQETIPALVAFQKTFNLRLDQRSYITEEDARGQINELKANGTEAVVGAGLITDLAEEAGMTGIFIYSAATVRQAFSDALDMTRMSLRHNTHDATRNALRTRYVLGDMLGQSPQMEQVRQTILLYARSSAAVLIEGETGTGKELAAQAIHREYFARHDARQGKKSHPFVAVNCGAIAESLLEAELFGYEEGAFTGSRRGGRAGLFEIAHGGTLFLDEIGEMPLPLQTRLLRVLEEKEVTRVGGHQPVPVDVRVISATHCNLEEDMQQGRFRRDLFYRLSILRLQLPPLRERVADILPLAESFLKVSLAALSAPFSAALRQGLQASETVLLHYDWPGNIRELRNMMERLALFLSVEPTPDLTPQFMQLLLPELARESAKTPAPRLLTPQQALEKFNGDKTAAANYLGISRTTFWRRLKS	4.26 ± 0.052	2.4 ± 0.6		2.71	2.277 ± 0.021	2.18 ± 0.55	4.02 ± 0.54	5.89 ± 0.42	2.53 ± 0.25	4.31		
MIRQRRRALTPEQQQEMGQQAATRMMTYPPVVMAHTVAVFLSFDGELDTQPLIEQLWRAGKRVYLPVLHPFSAGNLLFLNYHPQSELVMNRLKIHEPKLDVRDVLPLSRLDVLITPLVAFDEYGQRLGMGGGFYDRTLQNWQHYKTQPVGYAHDCQLVEKLPVEEWDIPLPAVVTPSKVWEW [P0AC28]	4.93 ± 0.7	3.88 ± 0.18		2.6 ± 0.54	2.58	2.75 ± 0.068	4.81 ± 0.41	7.66 ± 1.6	2.59	4.35	3.85 ± 0.24	7.8 ± 0.34
MNHSETITIECTINGMPFQLHAAPGTPLSELLREQGLLSVKQGCCVGECGACTVLVDGTAIDSCLYLAAWAEGKEIRTLEGEAKGGKLSHVQQAYAKSGAVQCGFCTPGLIMATTAMLAKPREKPLTITEIRRGLAGNLCRCTGYQMIVNTVLDCEKTK	4.15		1.29		1.2	1.46 ± 0.069	2.29 ± 0.2	3.5 ± 0.34				3.76
MSTTIEKIQRQIAENPILLYMKGSPKLPSCGFSAQAVQALAACGERFAYVDILQNPDIRAELPKYANWPTFPQLWVDGELVGGCDIVIEMYQRGELQQLIKETAAKYKSEEPDAE [P0AC69]	6.29	5.76 ± 1.2	3.71 ± 0.071	4.31 ± 0.19	3.43 ± 0.19	2.37 ± 0.19	5.03 ± 0.74	6.84 ± 0.26	3.25 ± 0.33	5.45 ± 0.99	4.67 ± 1.3	11.4 ± 3.8
MTISELLQYCMAKPGAEQSVHNDWKATQIKVEDVLFAMVKEVENRPAVSLKTSPELAELLRQQHSDVRPSRHLNKAHWSTVYLDGSLPDSQIYYLVDASYQQAVNLLPEEKRKLLVQL [P0AF50]	6.83 ± 0.78	5.39 ± 0.71	5.05	5.47 ± 0.13	4.39	> 4	4.6917 ± 0.0045	7.14 ± 1.4	3.752 ± 0.03	8.4 ± 3	4.6 ± 1.2	9.9 ± 0.1
